Test results reported in the DeepSol protein solubility set.

Assay: soluble on expression in E. coli; label from the status in PepcDB or PDB records

Soluble on expression in E. coli, not soluble:
MGSDKIHHHHHHMTEATKTDFSKLNVYQKLAYVRQKAPYIQKSKRGQQYSYVGSSDVLSALNTVINQVGLILKPEIVAHQVRESQDEVWKADKVKKEPVAKKRTTYFTELELMMTWINIHNPSEIVACSWYSQGVDIEGEKGVGKALTYAEKYFLLKFFNIATDDDDPDKYQKEQLKNTTITERQIDMLNASISRVAELAGQEFEAVKSLAINDSDLNPKKAFEEYSAYDYGVISKLLAKWINFYESRQKVQEDKK, MGSDKIHHHHHHMTEKKIILADEPLKSPDQDKLGFAPFAKRIATVIQSVQLRESIVFAVYGKWGSGKTTFINFLTSYLNHDSSITIVKFDPWWFSEKEDLIRQFLSNLQFTLNKSTKFKDIAKMLKPYIETLGEIPKFGWIFKIASRFKKNLQKSVIETKEEIINRLKEKDGKIVVIIDDIDRLTAKEIRELFTIVKAIADFPNTVYILAFDKDIVIRALEKVQEGKGEDYLEKIIQIPIELPLADKTSIRKMLFEELDAVLSGTSNELFDSTYWRNVYWDGIDPFINTVRNVKRLINTIRVTYPSVKNEVNAVDFIAIETLRVFCPEVYSIVKDYPDMFCGYSGEIYDVSRRHIEFLKQFHQNWLSRLNFPDDLKENIKNLLKRLFPKFESVFENIYYGPDWEREWRKKYRICCKEIFPRFFIFSVPSDDLSKHEMDFILSSLHNKEALIEHLKRLATQIRSDGSTRLSIFLERMEDYASEISQDYIPVVIEVFFTIGDKLIIPEDENKSFLIPWGNDIRMERIIWRLLRRYDNNSKRFEVLKNAFKNGQALFMMVNVLILFWQQHRKYRDAKESDAILLDENHLKTLQEIVLDKIRKAVEEGSLLNTPSLPVILHQWREWANEDEVKEWVKEIVFSDEKLPIFLTKFLQKTVSWTETSRATNIYWQIDLNWLKDFINLDFLEKRCNEILSNDSIIGTLEDKQKLAIRLFLNEKTKSLDSSTEEQGKDG, MGSDKIHHHHHHMTENKPSEQTNELKDLVVEKEFNQTLDDLLANPFGSDGESAASIVNNETDAAPRLVDMLTETNKKQALELSKQIEPGNQAAILGYGAPAQAKLHDFSHSMLAHVQKQDVGPIGDIISDLMYRLQEADPDELAARNKNVFTKMFHRVKQSINEITSKYQKIGTQIDRIALKLEHSKKRLMEDNSFLEQLYDKNKDYFQALNIYIAAGELKLEEINTKMLPELRKKAEQTGDQMDYQEVNDLTQFADRLDKRVYDLRLSRQITIQQAPQIRLIQNTNQALAEKIQSSIMTAIPLWKNQVAIALTLLRQQQAVAAQRQVSETTNELLKRNADMLKTNAIETARENERGIVDIETLKETQSSLIETLQETLKIQQEGRAKRAVAEKELVTMEQELKERLLEMK, MGSDKIHHHHHHMTIKETSRSEFITLRGLRYHVRQWGTPGAPKLFMLHGWMDVAASFQFLVDCLERDWHVIAPDWRGFGETDWPTRYPGTESYWFADYIADLEALLDHYQPNGQVDLVGHSMGANVACLYAGIRPERVHRVVDLEGFGLTQTRAEQAPKRYARWLDELRQRPELRTYDDVSGVAARLQKTNPRLPDDRAAFLAEHWSRRNEAGQWEILGDPAHKLVNPVLYRVDEVMAIWAEVSAPVLHVEARDSATLRHIAHKQTLEEFRERFRAFRDFREVVIDDAGHMLHHDQPAAVAALIESFIA, MGSDKIHHHHHHMTKEASRPALDLARQAYEAFKARGLNLNMQRGQPADADFDLSNGLLTVLGAEDVRMDGLDLRNYPGGVAGLPSARALFAGYLDVKAENVLVWNNSSLELQGLVLTFALLHGVRGSTGPWLSQTPKMIVTVPGYDRHFLLLQTLGFELLTVDMQSDGPDVDAVERLAGTDPSVKGILFVPTYSNPGGETISLEKARRLAGLQAAAPDFTIFADDAYRVHHLVEEDRAEPVNFVVLARDAGYPDRAFVFASTSKITFAGAGLGFVASSEDNIRWLSKYLGAQSIGPNKVEQARHVKFLTEYPGGLEGLMRDHAAIIAPKFRAVDEVLRAELGEGGEYATWTLPKGGYFISLDTAEPVADRVVKLAEAAGVSLTPAGATYPAGQDPHNRNLRLAPTRPPVEEVRTAMQVVAACIRLATEEYRAGH, MGSDKIHHHHHHMTKHASARKFPPRARFLPKCEPSLYHERRSVSARASGPTTVIDPKTVTDVTNDTLSHYALPAYPAEQFCVDIGANAGDPIGILDDLVMDDIYELTSDARLRRLAFGVSTEGTITLHSESEMGQDGARLHLDCAVTLMPDLGSAIEALIAVEVDNEGLIARLYLIPQAPLAQGTGYRLVRASREPVWTRLAQLSCVAFSRGTHITMGTGEQRPIEMLRAGDRVLTRNSGARRITWVGHTTVRAVGEMAPILIRQGALNNARDLLVSPDHRLMIYQRSDALGAGRNELMIRARDLVNGDSVVVQDGGFVDYYQILFDRHHIIYAEGIAAESMLVDPVTRPALPEEVQQRLTQPRRHGTRGDHGLEIRRPMLSHPDTVDLLKRASLR, MGSDKIHHHHHHMTKLDSFHLGELYRELRVARGLKMKDVVSDKLSQAQLSKFENGQTMLSADKLLTAISAIHMSFAEFEHAYYQYEDSSFFKQAKLISKYHSNKNIEGLEKLLIIHDNNSETYDVYDKLNKLVIRCAIHDLNPEYIISDDDKDFITTYLYSIEEWTEYELYIFGNTLQVLSDSDLIFLSKSFIERDSLYLSIPNNNFRTQLVVLNIIFVLLERKKDYCVHYFMKHLESILTYQDMFVKTVLIFLKKVLNYREGKGTHLIDLKKYIHDVEELGHEDVAEFLKDNIVNLL, MGSDKIHHHHHHMTKTYHFIGIKGSGMSALALMLHQMGHKVQGSDVEKYYFTQRGLEQAGIQILPFDEKNITADVELIAGNAFRPDNNVEIAYVDAQGYTYKRYHEFLGEFMKGFTSLGVAGAHGKTSTTGLLAHVMRNITDTSFLIGDGTGRGSANAQYFVFESDEYERHFAPYHPEYSIITNIDFDHPDYFTSLEDVFNAFNDYAKQVKKALLVFGEDEQLRRITANAPIYYYGFEENNDFVAYDLKPSTSGSQFKVRHGEEELGEFQIPTFGKHNVMNATAVIANLYIAGFDLQLVAEHLKTFGGVKRRFTEKIVNDTVIIDDFAHHPTEIIATIDAARQKYPSKELVAIFQPHTFTRTIALLDEFADALNGADAVYLAQIYGSARETDNGQVKVEDLAAKINKKGGLVTVENTSPLLDHDNAVYVFMGAGDIQSYEYSFERLLSNLTNNVQ, MGSDKIHHHHHHMTLAEKILSQKAGRKVEPGEFLLLEPDIALANDITAPLAIKKFKEYGGKKVKYPDRVVLVPDHFTPNKDIKSAMQVKMMREFAREQGIEKFFEIGRMGIEHVLLPEEGIVKSGDLVVGADSHTCTYGALGAFATGVGSTDIAGFYLIGKVWFRVPESIKVTLRGKFKDLVTAKDLVLKLISILGVDGANYKAIEFSGPGVKEISMDGRFTISNMAIEAGGKTGLFPVDEITIAYERERGIEVEEMYPDEDAKYVREVEMDLSELEPQVAYPFLPSNAKDVSEAEKERIKIDQAVIGSCTNGRIEDLRLAAQILKGRTVSPDVRCIIIPGSQKVYKQALKEGLIDIFIDAGCAVSTPTCGPCLGGHMGVLAEGEVAISTTNRNFVGRMGHPNSKVFLASPAVAAASAIKGYIADPRKL, MGSDKIHHHHHHMTLDSIERAIADIANGKPVVVVDSEDRENEGDLIFAADKATPELVAFMVRYSSGYICASLTSEECDRLQLPPMTSHNEDARGTAYAVTVDANTGTTGISATSRADTLRKLADSQFGPQDFTRPGHVVPLRAKAGGVLERAGHTEAAVDLARMAGLNPAGVLCEVVSEDDPTDMARAPELRRFADRHDLALISIEQLIEWRRRYELLVERAVSTQLPTEFGRFTAVGYRGIVDGVEHIALVAGDITSDEGKDVLLRVHSECLTGDVLGSRRCDCGPQLQASLRAISERGRGVVVYLRGHEGRGIGLLHKLQAYHLQDEGADTVDANKALGLPVDARNYSVAAHILRDLGVQSVCLLTNNPEKSLELERYGVKVTGREPVKVEVHEDNIRYLTTKRDRMNHDLPWIAEYKKEQS, MGSDKIHHHHHHMTLKVTLCDDSKMARKQLLRTLPDDWDAEVHQAEHGEQALTCLREGRAEVLFLDLNMPVKDGYETLQAIKEEQLETLVIVVSGDIQPEAQKRVQALGAMAFVKKPMKPEDIQTLLQQFGLYQPAAGQLKLADETPQAPANPLDVYREVSNVAMGQAGDHLARVLDTFIELPVPNVNFIAPSELHMAIESIDTNKQVAAVSQGFSGSGILGEALTLFNDASIDDIGKLLGAKLGESGSIKQQRIESLMDVASILSSACLNGLGQQLHVEFAASQPVLLGEHQSMRELIKHGEHRWQKILAIEIGYQLPEHKLAFDLLLLFPADAVKILDQQLAHWLQGDDE, MGSDKIHHHHHHMTLPPPRPPALCRGVVGLPLETQIDLTASNLAAVADLAAQYGLLIYLEALSWTPLNTIDRQLRTIEIANRDNIRLVIDFWHCYTSGDTPKHIARLHKDIIYGVHICDSLAYAGGVPDENMLRDVPTGNGVLNLKEWVDAVKSTGYDGWWSCELFCRRQHQENSYDVARSLNALMRDLVGA, MGSDKIHHHHHHMTMQPKYRELLLDEDVRRWFENLKAKSVLTATVALRNLGHYCELTGTTPHGILNKARANEKDFRYEFTDFVRKMEKEGKAGSYIARFKKVILSWLKFNDIRLQLTVNIAGENETPTIVNERVPSKEELARILRKATSRGRVAIAIMAFSGLRPESLGDYEGTDGLRLGDLKELKLSDEIQFDKIPATVMVKSKLSKARHHYFSFIGEEGTTYIREYLDERRKQGEELTYESPLLQFDVRGVKKNAFLRTTLVTRDIREAIEQAGLKMRPYVLRAYFSTALDIAESKGLISHPWRQFIMGHKGDIEARYSTNKRLPPDIIDEMRESYNKCTKFLETRISDVSEENARLYLQQQLLSAVGYRQDEIDKMNLAETSTEDFQKLLRDKVAGAMASNGSKQRLVSMNEIEKLLGEGYEFQAVLPNGKAIMKMPF, MGSDKIHHHHHHMTNLGTAKNFWDATLYQDKHSFVWQYGEDLLQLLNPQPGEFILDLGCGTGQLTEKIAQSGAEVLGTDNAATMIEKARQNYPHLHFDVADARNFRVDKPLDAVFSNAMLHWVKEPEAAIASIHQALKSGGRFVAEFGGKGNIKYILEALYNALETLGIHNPQALNPWYFPSIGEYVNILEKQGFDVTYAALFNRPTTLAEGEFGMANWIQMFASAFLVGLTPDQQVQLIRKVEATLQDKLYHQESWTADYRRIRIVSIKAQ, MGSDKIHHHHHHMTNRYDAVIIGAGHNGLVCGAYLARKGFKVCLLERRELAGGAAVSEAVWPGYRVSTASYTMALLQPRIIDELELAKYGYEIVVPPPMLHLYGDGRSLLFRPEGERLSADIARFSEADADAYGKYRAHMARLGKMVAGMLWETPPDPADSTLSARSRLLGFAWRFRDMGEQFYDLYDVLTLSARDYLARWFESDEMIAALGFYASCGGAATSICSPGSAYVLLRGFIRDHTTSAGPAGFVRGGMGSISEAIAASGKAYGMEVRCNAPVASVEISGERATGVRLSSGELIEAGCVISNVATKVLFQQLVGAQNVPPEFLARVRQIRDRSTAFKVNLALRRLPTFKDFDARSAGFAYPAQVRLAPSVEYLERAWDAAKYGEISPRPPLVVLTPSAVDPGVAPKGKHLMSIFGQHAPYALRDGPWDDAQRERLYQITLDTLAAYAPDIRECIDDAQVLSPADLERIFALPGGHVHHGELSADQIFFRRPVQGAADYCTPVKGLYQCGASVHPGGGVTGVPGYNAAHVVVRRERH, MGSDKIHHHHHHMTNTFSFDWAIAPETPDTFFAEYFEKKPMLIKRGQPGYFSDLLSYGEIDRVVSTMGLHVPEINVTRADGNITPADFAYETGQIDPVRVNQLHADGATVILSGLHERLPALARYCRAMEAAMSARVQTNIYMTPPGNQGFNPHYDGHDVLVLQVAGTKEWRIYGTPVELPLADQAFERGMDVGEEAQRFVLEPGDAVYIPRGMAHDAVATDETSLHITTGLMFRTWADALAEAVIAKAHREPSLRRALPPGFANNGVDLDDYKDTFAELIELVGDAHVGKLLSGFREEFLTARVPRVEGQMAQLAKLDGLTMDSRMGAHPHIVFGIHDVPNEDQVCLVAQGAEIILPAHARDAMEFCITTADFRLGDMEGDLDDAGKMVLAKRFVREGLMRVL
